# According to patent publication US20180282402A1 (ATYR PHARMA, published 2018):
# No end group written: not given here.
# T1: Rat NRP2-Fc-His (R&D Systems #567-N2) (rat, UniProt O35276 23-858, limits assumed)
# T1 construct: not shown: Fc and His tag
# T1 sequence (looked up): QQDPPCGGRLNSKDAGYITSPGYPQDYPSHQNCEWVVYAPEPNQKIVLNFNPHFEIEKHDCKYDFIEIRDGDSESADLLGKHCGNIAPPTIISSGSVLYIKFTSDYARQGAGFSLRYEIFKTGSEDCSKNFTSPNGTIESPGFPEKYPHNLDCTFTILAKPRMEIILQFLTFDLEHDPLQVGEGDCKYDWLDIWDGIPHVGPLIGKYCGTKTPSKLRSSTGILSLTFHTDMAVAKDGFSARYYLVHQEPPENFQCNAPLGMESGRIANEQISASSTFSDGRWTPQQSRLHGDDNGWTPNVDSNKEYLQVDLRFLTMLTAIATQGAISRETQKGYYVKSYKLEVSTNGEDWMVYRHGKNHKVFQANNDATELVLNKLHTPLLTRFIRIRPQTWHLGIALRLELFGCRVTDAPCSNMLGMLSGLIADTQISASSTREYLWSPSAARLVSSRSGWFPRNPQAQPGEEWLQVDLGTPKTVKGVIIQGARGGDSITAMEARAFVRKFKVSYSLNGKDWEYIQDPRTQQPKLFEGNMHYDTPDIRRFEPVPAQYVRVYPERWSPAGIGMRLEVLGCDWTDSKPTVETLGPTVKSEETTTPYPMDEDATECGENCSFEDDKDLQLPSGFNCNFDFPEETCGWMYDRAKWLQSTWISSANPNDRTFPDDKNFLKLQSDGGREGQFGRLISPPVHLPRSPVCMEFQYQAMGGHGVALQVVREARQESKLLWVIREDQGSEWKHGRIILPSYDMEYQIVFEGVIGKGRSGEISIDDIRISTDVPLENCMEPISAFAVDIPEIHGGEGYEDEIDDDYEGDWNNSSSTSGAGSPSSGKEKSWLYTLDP
# Legend:
# [1] = target: T2, Neuropilin 2A (NRP2A, NM_003872.2) on cells (human, UniProt O60462 23-931); assay: Retrogenix cell microarray on HEK293 cells, sequential staining, 20 ug/ml test protein, AF647 anti-human IgG Fc detection
# T2 construct: Used here for the Retrogenix HEK293 array and for the untagged NRP2v2 stably expressed on Expi293 cells; also called NRP2 variant 2; NRP2v2
# Procedure: The detection antibody was used at screening concentrations of 2, 5, and 20 μg/ml, as more fully described below.
# Primary hits (duplicate spots) were identified by analyzing fluorescence intensity in the AlexaFluor 647 and ZsGreen1 emission channels using the ImageQuant system, following standard fluorescent methodology. […] Additionally all vectors encoding all hits, plus control vectors, were spotted in duplicate on new slides, and used to reverse transfect human HEK293 cells as before.
# [2] = target: T3, Mouse PLXNA1-His (R&D Systems #4309-PA) (mouse, UniProt P70206 28-1242, limits assumed); assay: SPR: mouse Plexin A1 as analyte over immobilized Fc-HRS(2-60)
# T3 construct: also called mouse Plexin A1; not shown: His tag
# T3 sequence (P70206 28-1242 limits assumed): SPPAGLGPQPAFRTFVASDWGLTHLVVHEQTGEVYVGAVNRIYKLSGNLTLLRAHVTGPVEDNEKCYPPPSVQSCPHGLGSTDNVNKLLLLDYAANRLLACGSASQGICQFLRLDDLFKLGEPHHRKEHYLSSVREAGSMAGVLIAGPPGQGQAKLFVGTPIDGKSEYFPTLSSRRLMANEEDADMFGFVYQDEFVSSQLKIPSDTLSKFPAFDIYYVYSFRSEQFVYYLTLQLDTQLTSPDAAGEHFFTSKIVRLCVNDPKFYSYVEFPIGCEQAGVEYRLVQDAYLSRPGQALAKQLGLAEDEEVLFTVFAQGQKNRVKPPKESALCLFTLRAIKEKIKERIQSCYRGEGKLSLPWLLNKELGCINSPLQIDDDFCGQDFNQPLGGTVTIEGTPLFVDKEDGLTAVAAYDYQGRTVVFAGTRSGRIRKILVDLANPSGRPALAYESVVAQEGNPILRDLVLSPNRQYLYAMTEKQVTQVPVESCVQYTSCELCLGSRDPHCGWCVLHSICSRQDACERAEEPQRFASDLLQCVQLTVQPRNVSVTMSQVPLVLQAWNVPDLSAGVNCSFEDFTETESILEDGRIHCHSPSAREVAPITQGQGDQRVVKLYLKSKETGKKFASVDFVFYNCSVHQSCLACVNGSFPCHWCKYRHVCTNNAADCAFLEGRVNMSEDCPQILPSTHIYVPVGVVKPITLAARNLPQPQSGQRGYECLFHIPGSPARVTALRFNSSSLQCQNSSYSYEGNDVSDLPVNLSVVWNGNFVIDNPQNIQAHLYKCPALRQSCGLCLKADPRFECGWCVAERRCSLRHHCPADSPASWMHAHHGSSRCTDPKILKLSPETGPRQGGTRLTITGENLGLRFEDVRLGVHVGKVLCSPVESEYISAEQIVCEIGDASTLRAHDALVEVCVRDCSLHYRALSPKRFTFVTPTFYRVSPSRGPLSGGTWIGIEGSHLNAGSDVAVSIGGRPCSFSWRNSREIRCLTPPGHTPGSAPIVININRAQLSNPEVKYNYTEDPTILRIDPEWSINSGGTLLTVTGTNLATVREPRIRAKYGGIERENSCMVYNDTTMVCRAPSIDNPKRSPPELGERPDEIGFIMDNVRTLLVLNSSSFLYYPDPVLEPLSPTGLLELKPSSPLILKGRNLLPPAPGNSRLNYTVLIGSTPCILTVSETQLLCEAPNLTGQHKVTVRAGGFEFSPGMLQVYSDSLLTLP
# [3] = target: T4, NRP2a-GFP fusion protein on HEK293T cells (human, UniProt O60462 23-931); assay: immunofluorescence microscopy (IN Cell Analyzer) on fixed HEK293T cells expressing NRP2v2-GFP, GFP-bright gate; Fc-HRS(2-60) titrated in 2-fold steps and complexed with anti-Fc-PE [panel A]
# T4 construct: Transiently expressed; cells fixed before staining; also called NRP2v2-GFP; cell-expressed NRP2a; not shown: GFP (Origene RG220706, NM_003872 ORF clone)
# Procedure: (§1) HEK293T cells previously transfected with NRP2v2-GFP were passed the night before staining to 96 well Greiner Clear flat bottomed Microplates pre-coated with collagen coating solution. Supernatants were removed and cells were washed 1 time with binding buffer. Cells were then fixed with 50 μL of 3.7% methanol-free formaldehyde for 20 minutes at room temperature. Cells were washed 2× with binding buffer and then blocked with 100 μL of blocking buffer for 1 hour at room temperature. The cells were then washed one time with binding buffer and then incubated with 50 μL of staining complex overnight at 4 degrees Celsius. Cells were then washed 3 times with binding buffer, and then nuclei were counter stained with […] Hoechst diluted in DPBS for 10 minutes at room temperature. The Hoechst stain was replaced with 1×PBS and subsequently read on an IN Cell Analyzer 2200. 20× images were acquired and analyzed using In Cell Analyzer 1000 Workstation software. Segmentation of the cell mask was achieved using the GFP channel, and the average PE signal intensity was determined within this mask above a threshold intensity of 5000 (termed GFP Bright cells).
# [4] = target: T1, Rat NRP2-Fc-His (R&D Systems #567-N2); assay: SPR: 50 nM rat NRP2 as analyte over immobilized Fc-HRS(2-60) [panel A]
# [5] = target: T5, NRP1-His (R&D Systems #3870-N1) (human, UniProt O14786-2 22-644); assay: SPR: NRP1 as analyte over immobilized Fc-HRS(2-60)
# T5 construct: not shown: His tag
# [6] = target: T4, NRP2a-GFP fusion protein on HEK293T …; assay: competition assay, immunofluorescence microscopy on HEK293T cells expressing NRP2v2-GFP, GFP-bright gate; VEGF-C titrated, competitor 175 nM Fc-HRS(2-60)/anti-Fc-PE [panel A]
# Procedure: as §1
# [7] = target: T6, NRP2-Fc (R&D Systems #2215-N2) (human, UniProt O60462 23-864, limits assumed); assay: SPR: NRP2 as analyte over immobilized WARS WHEP [panel D]
# T6 construct: Bought reagent used as NRP2 in the SPR experiments; also called human NRP2; Neuropilin 2; not shown: Fc
# [8] = target: T6, NRP2-Fc (R&D Systems #2215-N2); assay: SPR: NRP2 as analyte over immobilized GARS Fc-WHEP [panel B]
# [9] = target: T6, NRP2-Fc (R&D Systems #2215-N2); assay: SPR: NRP2 as analyte over immobilized MARS Fc-WHEP [panel C]
binder,measurement,setting,value
"Fc-HRS(2-60) (Fc fusion, also: linker to Fc not given here, biotinylated for flow assay (maleimide-PEG11-biotin, ~3.35 per molecule), Fc at the N-terminus, HRS residues 2-60 (WHEP domain) at the C-terminus; in the imaging assay pre-complexed with anti-Fc-PE; also called HRS-Fc fusion protein construct; ATYR1923; not shown: human IgG Fc region) {human IgG Fc}-AERAALEELVKLQGERVRGLKQQKASAELIEEEVAKLLKLKAQLGPDESKQKFVLKTPK",binding result,[1],binds
same,binding result,[2],no binding (tested: 50 nM)
same,binding result,[3],binds
same,binding result,[4],binds
same,binding result,[5],no binding (tested: 50 nM)
"VEGF-C (ligand, human, UniProt P49767 103-227, looked up, also called Recombinant Human VEGF-C Protein) TEETIKFAAAHYNTEILKSIDNEWRKTQCMPREVCIDVGKEFGVATNTFFKPPCVSVYRCGGCCNSEGLQCMNTSTSYLSKTLFEITVPLSQGPKPVTISFANHTSCRCMSKLDVYRQVHSIIRR",IC50 (read off the curve),[6],~2 nM
"WARS WHEP (other, UniProt P23381 8-64, looked up, domain: WHEP domain; also called WHEP domain of WARS with a V5/His tag; not shown: V5/His tag) SLLELFNSIATQGELVRSLKAGNASKDEIDSAVKMLVSLKMSYKAAAGEDYKADCPP",binding result,[7],no binding (tested: 20 nM)
"GARS Fc-WHEP (Fc fusion, UniProt P41250 63-119, looked up, domain: WHEP domain; not shown: Fc domain) VLAPLRLAVRQQGDLVRKLKEDKAPQVDVDKAVAELKARKRVLEAKELALQPKDDIV",binding result,[8],no binding (tested: 20 nM)
"MARS Fc-WHEP (Fc fusion, UniProt P56192 841-897, looked up, domain: WHEP domain; not shown: Fc domain) QIQALMDEVTKQGNIVRELKAQKADKNEVAAEVAKLLDLKKQLAVAEGKPPEAPKGK",binding result,[9],no binding (tested: 20 nM)
